Assay results published in patent US20030060613, “Novel use of calreticulin in modulating hormone responsiveness and new pharmaceuticals for treating cancer, osteoporosis and chronic inflammatory disease” (published 2003).

B1: ARE, rat probasin promoter -115 to -140 (dsDNA)
DNA 1: GTAAAGTACTCCAAGAACCTATTTGT
DNA 2: ACAAATAGGTTCTTGGAGTACTTTAC

What was measured:
[1] = test system: RAR/RXR endogenous retinoic acid receptors (Mus musculus); experiment: cell_activity; conditions: P19 cells, 10^-7 M retinoic acid; 0.49 without retinoic acid; 61.95 with 100 uM KLGFFKR
[2] = target: Androgen receptor DNA-binding domain (Rattus norvegicus, UniProt P15207 P15207:541-614); experiment: EMSA; conditions: tags: GST fusion (pGEX-3X); label: 32P
Chain of Androgen receptor DNA-binding domain (P15207 541-614, one chain of several): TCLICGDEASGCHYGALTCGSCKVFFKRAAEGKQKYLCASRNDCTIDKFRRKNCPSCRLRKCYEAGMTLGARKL
Protocol: As described in Rennie et al., 1993, DNA binding domain of recombinant rat androgen receptor was prepared as a GST-fusion protein using the pGEX-3X vector and purified by glutathione-agarose affinity chromatography. p60 (calreticulin) was purified by affinity chromatography on KLGFFKR-sepharose, followed by gel electrophoresis as described in detail in Rojiani et al., 1991. […] Recombinant calreticulin (GST-fusion protein) was prepared as described by Baksh and Michalak, 1991. Gel retardation assays were carried out as described by Rennie et al., 1993. To analyze the effect of p60, or recombinant calreticulin, on receptor-DNA binding activity, the AR was pre-incubated with p60 for 30 min at 4° C. To analyze the effects of synthetic peptides, anti-calreticulin antibody, and non-immune IgG on p60 inhibition of AR-ARE binding, the peptide, antibody or IgG were pre-incubated with p60 for 30 min at 4° C. The androgen receptor preparation was then added to these mixtures and further incubated for 30 min at 4° C.
Affinity purified DNA binding domain of the recombinant rat androgen receptor (AR) was pre-incubated with or without the indicated concentrations of purified p60 at 4° C. for 30 min. After this pre-incubation the reaction mixtures were incubated with ³²P-labeled 26 base pair ARE (Rennie et al., 1993) (androgen response element), and analyzed by gel retardation assay. […]

| Molecule | activity (corrected luc/bgal) [1] | binding result [2] |
| --- | --- | --- |
| bRARE (RAR-beta upstream 32 bp RARE, luciferase reporter) | 25.7 |  |
| B1 |  | binds |
